{"source": "paper PMC4546627", "about": "“Biophysical Characterization of Essential Phosphorylation at the Flexible C-Terminal Region of C-Raf with 14-3-3ζ Protein” (PLoS ONE, 2015)", "key": {"human 14-3-3ζ protein [1]": {"target": "T1, human 14-3-3ζ protein (Homo sapiens, UniProt P63104)", "T1 construct": "hexa-histidine (His6, from pQE30 vector) (N); made in house; host or cells: E. coli M15", "T1 sequence (P63104 1-245)": "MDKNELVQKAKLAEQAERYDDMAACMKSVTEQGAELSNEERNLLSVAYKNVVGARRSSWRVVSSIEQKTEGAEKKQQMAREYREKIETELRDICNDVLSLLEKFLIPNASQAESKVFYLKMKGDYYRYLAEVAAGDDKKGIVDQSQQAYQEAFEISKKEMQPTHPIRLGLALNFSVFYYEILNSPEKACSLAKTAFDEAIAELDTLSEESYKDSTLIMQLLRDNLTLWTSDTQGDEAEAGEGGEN", "assay": "Isothermal titration calorimetry (ITC) of peptide binding to 14-3-3ζ", "from_the_text": "Human 14-3-3ζ full length sequence was PCR amplified using pcDNA3 14-3-3ζ as a template with forward primer (5´-[…]-3´) and reverse primer (5´-[…]-3´). The PCR amplified product was digested with BamH1 and Pst1 and cloned into pQE30 vector. This vector contains N-terminal hexa- histidine tag suitable for affinity purification. The cloned fragment was confirmed by automated DNA sequencer, Applied Biosystem 3130×I 96 capillary DNA Analyzer.\nE. coli M15 cells were transformed with this construct and grown at 37°C in LB medium containing ampicillin and kanamycin. The cells were grown till 0.6 (O.D.600nm) and the expression of the protein was induced with 0.5 mM IPTG for 3 hours. The cells were harvested and stored at -70°C. The cells were subsequently resuspended in lysis buffer (10 mM NaH2PO4, 100 mM NaCl, pH7.0, 1 mM PMSF (Sigma, St. Louis, MO), 1X Halt Protease inhibitor cocktail (ThermoFisher Scientific, Waltham, MA) and lysed by passing through the French press at 20,000 psi. Cell lysate was centrifuged at 20,000×g for 15 minutes at 4°C. The supernatant was collected and again centrifuged at 100,000×g for 1 hour. Cell homogenate was applied onto TALON affinity resin (Clontech, Mountain View, CA) pre-equilibrated with lysis buffer. Resin was washed with five volumes of lysis buffer containing 20 mM imidazole. Bound protein was eluted with 150 mM imidazole containing lysis buffer. Imidazole was then removed by dialysis; the buffer was exchanged with 10 mM NaH2PO4, 100 mM NaCl, pH 6.1 and the protein was concentrated in sucrose bed. Commercially synthesized and HPLC-purified (> 95%) KH16p and KH16 peptides were purchased from GL Biochem (Shanghai, China) and used as received.\nITC technique was employed to study thermodynamics of KH16p and KH16 peptides interactions with 14-3-3ζ protein with the help of VP-ITC micro-calorimeter in high feedback mode. The peptides were dissolved in the same dialysis buffer of 14-3-3ζ protein (i.e., 10 mM Na2HPO4 buffer containing 100 mM NaCl, pH 6.1). Sample cell with 50 μM 14-3-3ζ protein was titrated against 1 mM peptide in a syringe with 300 rpm stirring speed with an initial delay of 60 sec. The cell temperature was kept at 298 K and 10 μcal/s of reference power as applied to maintain a flat baseline. A total of 17 injections of 1 mM KH16p/KH16 were performed, where the initial injection was of 0.4 μl and the final was 2.0 μl, while the remaining 15 injections were 2.5 μl each. Each injection was over a period of 0.8 sec with a spacing of 150 sec and filter time of 5 sec. An equivalent control experiment to subtract the heat of dilution of the peptides in buffer was performed (i.e., the same concentration of peptide was injected into the buffer solution keeping same experimental parameters). Results obtained were plotted using MicroCal Origin 7.0 software. In order to determine the thermodynamic parameters (i.e., association constant K A and enthalpy of reaction ΔH), the single-site binding model was used. Other thermodynamic parameters such as the free energy of binding (ΔG) and entropy (ΔS) were calculated using Eqs (2) and (3), respectively: ΔG=−RTlnKA (2) ΔG=ΔH−TΔS (3)"}, "[2]": {"target": "C-Raf pS259 peptide (Homo sapiens) (UniProt P04049)", "details": "cited from earlier work"}, "[3]": {"target": "C-Raf pS233/pS259 peptide (Homo sapiens) (UniProt P04049)", "details": "cited from earlier work"}, "[4]": {"target": "C-Raf pS233 peptide (Homo sapiens) (UniProt P04049)", "details": "cited from earlier work"}, "human 14-3-3ζ protein [5]": {"target": "T1, human 14-3-3ζ protein", "assay": "STD NMR with 14-3-3ζ", "assay_type": "binding", "details": "1 mM peptide, 2 μM 14-3-3ζ (500:1), D2O, 10 mM Na2HPO4, 100 mM NaCl, pH 6.1, 288 K", "description": "Saturation transfer difference (STD) NMR experiments were carried out at 288 K using standard STD pulse sequences, with WATERGATE 3-9-19 water suppression method. Briefly, 1 mM of KH16p/KH16 peptide in 10 mM Na2HPO4 buffer (pH 6.1) with 100 mM NaCl was lyophilized and resuspended in an equal volume of D2O, and 2 μM 14-3-3ζ proteins was added to it. A train of 40 selective Gaussian-shaped pulses (49 ms each) with an interval period of 1 ms was used to saturate protein resonance for a total of 2 sec saturation time. During the STD NMR experiment, on- and off-resonance frequencies were set at -1 ppm and 40 ppm, respectively. Subtraction of off-resonance spectrum from the on-resonance spectra to yield signals appearing due to saturation transfer from protein to ligand was achieved using phase cycling. The one-dimensional STD spectra were acquired with 1024 scans with 16 dummy scans using a sweep width of 12 ppm. An exponential line broadening function of 3 Hz was applied to the spectral data before Fourier transformation. Similar STD experiments were performed on the peptide KH16p or KH16 in the absence of 14-3-3ζ protein as a control."}, "14-3-3ζ": {"target": "T2, 14-3-3ζ (Homo sapiens, UniProt P63104)", "T2 chain": "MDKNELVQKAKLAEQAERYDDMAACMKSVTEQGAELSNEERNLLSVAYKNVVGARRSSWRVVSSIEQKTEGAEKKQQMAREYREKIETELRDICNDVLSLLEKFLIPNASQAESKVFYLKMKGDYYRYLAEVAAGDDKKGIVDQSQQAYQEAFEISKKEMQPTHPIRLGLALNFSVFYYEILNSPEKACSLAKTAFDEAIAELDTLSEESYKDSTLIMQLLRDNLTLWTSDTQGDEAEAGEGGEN", "assay": "31P NMR"}}, "note": "“Also recorded” adds a separate entry of the source. Where a SMILES comes first, the peptide text is derived from it. Where no end group is shown, it is not given here. [ ]: non-standard residue; d: D form. pS = N[C@@H](COP(=O)(O)O)C(=O)O", "data": [{"molecule": "CC[C@H](C)[C@H](NC(=O)[C@@H](N)CCCCN)C(=O)N[C@@H](CC(N)=O)C(=O)N[C@@H](CCCNC(=N)N)C(=O)N[C@@H](CO)C(=O)N[C@@H](C)C(=O)N[C@@H](COP(=O)(O)O)C(=O)N[C@@H](CCC(=O)O)C(=O)N1CCC[C@H]1C(=O)N[C@@H](CO)C(=O)N[C@@H](CC(C)C)C(=O)N[C@@H](Cc1c[nH]cn1)C(=O)N[C@@H](CCCNC(=N)N)C(=O)N[C@@H](C)C(=O)N[C@@H](C)C(=O)N[C@@H](Cc1c[nH]cn1)C(=O)O", "note": "[KH16p] (H-KINRSA[pS]EPSLHRAAH-OH)", "values": [{"measurement": "Kd", "setting": "human 14-3-3ζ protein [1]", "result": 17.3, "unit": "µM"}]}, {"molecule": "14-3-3ζ (from UniProt P63104)", "values": [{"measurement": "Kd", "setting": "[2]", "result": 16.7, "unit": "µM"}, {"measurement": "Kd", "setting": "[3]", "result": 0.346, "unit": "µM"}, {"measurement": "Kd", "setting": "[4]", "result": 171, "unit": "µM"}]}, {"molecule": "KH16: control peptide KH16 devoid of phosphorylation at S621 (C-Raf 615–630) (KINRSASEPSLHRAAH; UniProt P04049 615-630, looked up, fragment)", "values": [{"measurement": "STD NMR signals with 14-3-3ζ (in words)", "setting": "human 14-3-3ζ protein [5]", "result": "did not show any peaks in both the aromatic and the aliphatic regions"}, {"measurement": "N (stoichiometry)", "setting": "human 14-3-3ζ protein [1]; ITC, 50 μM 14-3-3ζ in cell, 1 mM peptide in syringe, 298 K, 10 mM Na2HPO4, 100 mM NaCl, pH 6.1, single-site binding model", "result": "1.89 ± 1.45 × 10^4"}, {"measurement": "T∆S", "setting": "human 14-3-3ζ protein [1]; ITC, 298 K, pH 6.1", "result": -411.24, "unit": "kcal/mol"}, {"measurement": "binding affinity (in words)", "setting": "human 14-3-3ζ protein [1]; ITC, 298 K, pH 6.1", "result": "did not show any appreciable binding affinity; also recorded: relatively weak and the corresponding KD value is in the millimolar range"}, {"measurement": "∆S", "setting": "human 14-3-3ζ protein [1]; ITC, 298 K, pH 6.1, calculated from ΔG=ΔH−TΔS", "result": "-1.38 × 10^3 cal mol^-1 deg^-1"}, {"measurement": "∆G", "setting": "human 14-3-3ζ protein [1]; ITC, 298 K, pH 6.1, calculated from ΔG=−RTlnKA", "result": -1.96, "unit": "kcal/mol"}]}, {"molecule": "KINRSA[pS]EPSLHRAAH", "note": "[C-Raf KH16p phosphopeptide 615-630]", "values": [{"measurement": "Kd", "setting": "14-3-3ζ", "result": 17.7, "unit": "µM"}]}]}
